Earlier results, collected in US20180022822A1, “NOVEL ANTI-FIBROBLAST ACTIVATION PROTEIN (FAP) BINDING AGENTS AND USES THEREOF” (Mabimmune Diagnostics AG, priority 2016, published 2018).

How the values were obtained:
[1] = pH 7.8
[2] = in vivo

Compound | stability of inhibitory activity [1] | patients with change in pharmacokinetics and reduced tumor uptake ([2]; human) | patients who developed human-anti-human antibodies (HAHA) [2]
CC(C)[C@H](N)C(=O)N1CCC[C@H]1B(O)O [Talabostat, Val-boroPro] | rapidly loses inhibitory activity |  | 
Sibrotuzumab: humanized version of the F19 antibody that specifically binds to human FAP |  | 4 of 26 | 8 of 26
